These results are taken from US20210179728A1 (OSE IMMUNOTHERAPEUTICS, published 2021).

One assay addresses T1, 4-1BBFcHis (UniProt Q07011 24-186).
T1 construct: not shown: Fc and His tag; not specified
Nature of the assay: ELISA: modified antibody (concentration on the axis) captured on SIRPa-His, then 4-1BBFcHis, detected with mouse anti-His [panel 4-1BBL]. The source says: (§1) FIG. 24. Ligand binding assay with the different modified anti-SIRPa antibodies by ELISA.
A general note: ELISA stands for enzyme-linked immunosorbent assay.

The target in assay [1] is T2, recombinant hSIRPa (Sino Biologicals, reference 11612-H08H) (human, UniProt P78324 31-370).
T2 construct: also called SIRPa-His; human SIRPa-His; not shown: His tag (histidine tail)
The experiment in a line: ELISA on immobilized SIRPa-His, peroxidase anti-human IgG, DO 450nm [panel 4-1BBL]. The procedure:
(§2) Method: For ELISA assay, recombinant hSIRPa (Sino Biologicals, Beijing, China; reference 11612-H08H) was immobilized on plastic at 0.5 μg/ml in carbonate buffer (pH9.2) and different modified anti-SIRPa antibodies were added to measure binding to SIRPa.

Assay [2] concerns the target T2, recombinant hSIRPa (Sino Biologicals, …). Nature of the assay: SPR (Biacore); SIRPa-His immobilized on CM5 chip, antibody injected. As to the method: FIG. 2. Affinity analysis by Biacore of anti-SIRP antibodies on human SIRPa recombinant protein. SIRPa-His recombinant protein was immobilized onto a CM5 chip at 5 μg/ml (500 RU) and the indicated antibodies were added at different concentration.
Method: Recombinant hSIRPa (Sino Biologicals, Beijing, China; reference 11612-H08H) was immobilized into a CM5 sensor chip (GeHealthcare; France) at 5 μg/ml (500 RU) and antibodies were applied at different concentrations with a flow rate of 40 μl/min. Analysis was performed with a BIAcore 3000 (Biacore, GeHealthcare).

The target is the same in assay [3]. Nature of the assay: ELISA on immobilized SIRPa-His, peroxidase anti-human IgG, DO 450nm [all panels]. As to the method:
as §2

The target of assay [4] is T3, recombinant hSIRPb-His (Antibodies-online, reference ABIN3077231) (human, UniProt Q5TFQ8 30-371).
T3 construct: also called SIRPb-His (Blitz); not shown: His tag
Nature of the assay: BLI (Blitz); SIRPb-His on Ni-NTA biosensor, antibody at 20 ug/ml [B, table A]. As to the method:
FIG. 7. (A) Affinity analysis by Blitz of anti-SIRP antibodies on human SIRPb recombinant protein. SIRPb-His recombinant protein was immobilized onto a NINTA biosensor and the indicated antibodies were added at 20 μg/ml. […] (B) Binding analysis of anti-SIRP antibodies (human SIRPb-His coating and anti-human kappa detection).
Method: This method was performed with a Blitz (Forte Bio; USA; reference C22-2 No 61010-1). Recombinant hSIRPb-His (Antibodies-online; USA; reference ABIN3077231) was immobilized at 10 μg/ml by histidine tail into a Ni-NTA biosensor (Forte Bio; USA; reference 18-0029) for 30 seconds. Then, an anti-SIRPa antibody was associated at 20 μg/mL for 120 seconds. The dissociation of anti-SIRPa antibody was made in kinetics buffer for 120 seconds. Analysis of data was made with the Blitz pro 1.2 software, which calculated association constant (ka) and dissociation constant (kd) and determined the affinity constant KD […].

The target in assay [5] is T2, recombinant hSIRPa (Sino Biologicals, …). Nature of the assay: ELISA on immobilized hSIRPa-His, anti-human IgG detection, first experiment; first experiment. The procedure:
Method: The binding activity of the anti-SIRPa antibodies was assessed by ELISA.

For assay [6] the target is unchanged. Nature of the assay: competition ELISA on immobilized SIRPa-His; competitor biotinylated CD47-Fc at 6 ug/ml, streptavidin-peroxidase [second experiment table]. As to the method: (§3) Method: For competitive ELISA assay, recombinant hSIRPa (Sino Biologicals, Beijing, China; reference 11612-H08H) was immobilized on plastic at 0.5 μg/ml in carbonate buffer (pH9.2).

For assay [7] the target is unchanged. Nature of the assay: competition ELISA on coated SIRPa-His; competitor biotinylated CD47-Fc at 6 ug/ml, streptavidin-peroxidase [panel PDL1]. As to the method: as §3
The target of a further assay is T4, PD1His (human, UniProt Q15116 25-170, limits assumed).
T4 construct: not shown: His tag
The experiment in a line: ELISA: modified antibody (concentration on the axis) captured on SIRPa-His, then PD1His, detected with mouse anti-His [panel PDL1].
Source text: as §1

Assay [8] deals with T2, recombinant hSIRPa (Sino Biologicals, …). Nature of the assay: competition ELISA on coated SIRPa-His; competitor biotinylated CD47-Fc at 6 ug/ml, streptavidin-peroxidase [panel PD1]. As to the method:
as §3

The next assay addresses T5, PDL1Fc (human, UniProt Q9NZQ7 19-238).
T5 construct: not shown: Fc; not specified
Nature of the assay: ELISA: modified antibody (concentration on the axis) captured on SIRPa-His, then PDL1Fc, detected with mouse anti-human PDL1 [panel PD1].
Source text: as §1

Assay [9] deals with T2, recombinant hSIRPa (Sino Biologicals, …). The experiment in a line: ELISA on immobilized SIRPa-His, peroxidase anti-human IgG, DO 450nm [panel PD1]. The procedure:
as §2

The target is the same in assay [10]. The experiment in a line: competition ELISA on coated SIRPa-His; competitor biotinylated CD47-Fc at 6 ug/ml, streptavidin-peroxidase [panel 4-1BBL]. The procedure: as §3
The next assay deals with T6, CD28Fc (human, UniProt P10747 19-152, limits assumed).
T6 construct: not shown: Fc; not specified
Nature of the assay: ELISA: modified antibody (concentration on the axis) captured on SIRPa-His, then CD28Fc, detected with mouse anti-human CD28 [panel ICOSL].
Source text: as §1

The target in assay [11] is T2, recombinant hSIRPa (Sino Biologicals, …). Nature of the assay: ELISA on immobilized SIRPa-His, peroxidase anti-human IgG, DO 450nm [panel ICOSL]. The procedure: as §2

B1: modified anti-SIRPa HEFLB antibody with ECD of 4-1BBL on the light chain (antibody, human IgG4 S228P, kappa)
heavy: not shown
light: DVVMTQSPLSLPVTLGQPASISCRSSQSLVHSYGNTYLYWFQQRPGQSPRLLIYRVSNRFSGVPDRFSGSGSGTDFTLKISRVEAEDVGVYYCFQGTHVPYTFGGGTKVEIKRTVAAPSVFIFPPSDEQLKSGTASVVCLLNNFYPREAKVQWKVDNALQSGNSQESVTEQDSKDSTYSLSSTLTLSKADYEKHKVYACEVTHQGLSSPVTKSFNRGECGGGGSGGGGSGGGGSREGPELSPDDPAGLLDLRQGMFAQLVAQNVLLIDGPLSWYSDPGLAGVSLTGGLSYKEDTKELVVAKAGVYYVFFQLELRRVVAGEGSGSVSLALHLQPLRSAAGAAALALTVDLPPASSEARNSAFGFQGRLLHLSAGQRLGVHLHTEARARHAWQLTQGATVLGLFRVTPEIPAGLPSPRSE
notes: as m32, ECD of 4-1BBL; also called VH+VLprot (4-1BBL); HEF + LB-4-1BBL
By EC50 (read off the curve) is commonly meant the midpoint of the concentration-response curve. Consider B1, for which the entries for the “EC50 (read off the curve)” value (with 4-1BBFcHis; in [1]) were around 0.2 µg/mL and around 0.007 µg/mL, respectively.

B2: HEFLB (antibody, human IgG4 S228P, kappa)
heavy: not shown
light: DVVMTQSPLSLPVTLGQPASISCRSSQSLVHSYGNTYLYWFQQRPGQSPRLLIYRVSNRFSGVPDRFSGSGSGTDFTLKISRVEAEDVGVYYCFQGTHVPYTFGGGTKVEIKRTVAAPSVFIFPPSDEQLKSGTASVVCLLNNFYPREAKVQWKVDNALQSGNSQESVTEQDSKDSTYSLSSTLTLSKADYEKHKVYACEVTHQGLSSPVTKSFNRGEC
notes: humanized 18D5 variant; IgG4m (S228P) / kappa; also called anti-SIRPa HEFLB
By Kd is commonly meant the free concentration of one partner at which half of the binding sites on the other are occupied at equilibrium, for simple one-to-one binding. By koff is commonly meant the first-order rate constant of dissociation. By kon is commonly meant the second-order rate constant of association. For orientation: EC50 means the midpoint of the concentration-response curve. One may read the IC50 as the point on the concentration scale where inhibition reaches its midpoint. Turning to B2, in assay [2], the Kd is 0.289 nM, the koff was found to be 0.000189 s⁻¹ and the on-rate constant (kon) was determined as 654000 M⁻¹ s⁻¹. Further, the “EC50 (read off the curve)” value in assay [3] is around 0.01 µg/mL. Further, in [4], the Kd worked out at 86.9 nM, the koff is 0.00171 s⁻¹ and the kon stood at 19400 M⁻¹ s⁻¹. Moreover, the EC50 in assay [5] worked out at 0.0044 µg/mL. The IC50 in assay [6] amounted to 0.186 µg/mL.

B3: modified anti-SIRPa HEFLB antibody with ECD of PDL1 on the heavy chain (antibody, human IgG4 S228P, kappa)
heavy: not shown
light: DVVMTQSPLSLPVTLGQPASISCRSSQSLVHSYGNTYLYWFQQRPGQSPRLLIYRVSNRFSGVPDRFSGSGSGTDFTLKISRVEAEDVGVYYCFQGTHVPYTFGGGTKVEIKRTVAAPSVFIFPPSDEQLKSGTASVVCLLNNFYPREAKVQWKVDNALQSGNSQESVTEQDSKDSTYSLSSTLTLSKADYEKHKVYACEVTHQGLSSPVTKSFNRGEC
notes: as m25, ECD of PDL1; also called VHprot+VL (PDL1); VH-PDL1
With B3, the “IC50 (read off the curve)” value in [7] was around 0.3 µg/mL. Besides, in the assay with PD1His, the binding result is “binds”.

B4: modified anti-SIRPa HEFLB antibody with ECD of PD1 on the heavy chain (antibody, human IgG4 S228P, kappa)
heavy: not shown
light: DVVMTQSPLSLPVTLGQPASISCRSSQSLVHSYGNTYLYWFQQRPGQSPRLLIYRVSNRFSGVPDRFSGSGSGTDFTLKISRVEAEDVGVYYCFQGTHVPYTFGGGTKVEIKRTVAAPSVFIFPPSDEQLKSGTASVVCLLNNFYPREAKVQWKVDNALQSGNSQESVTEQDSKDSTYSLSSTLTLSKADYEKHKVYACEVTHQGLSSPVTKSFNRGEC
notes: also called VHprot+VL (PD1); HEF-PD1 + LB
For B4, the “IC50 (read off the curve)” value in assay [8] is around 0.2 µg/mL. Further, the binding result with PDL1Fc is “binds”. Moreover, the “EC50 (read off the curve)” value in assay [9] was around 0.008 µg/mL.

B5: modified anti-SIRPa HEFLB antibody with ECD of 4-1BBL on the heavy chain (antibody, human IgG4 S228P, kappa)
heavy: not shown
light: DVVMTQSPLSLPVTLGQPASISCRSSQSLVHSYGNTYLYWFQQRPGQSPRLLIYRVSNRFSGVPDRFSGSGSGTDFTLKISRVEAEDVGVYYCFQGTHVPYTFGGGTKVEIKRTVAAPSVFIFPPSDEQLKSGTASVVCLLNNFYPREAKVQWKVDNALQSGNSQESVTEQDSKDSTYSLSSTLTLSKADYEKHKVYACEVTHQGLSSPVTKSFNRGEC
notes: as m25, ECD of 4-1BBL; also called VHprot+VL (4-1BBL); VH-4-1BBL
Regarding B5, the “IC50 (read off the curve)” value in assay [10] was around 0.3 µg/mL.

B6: modified anti-SIRPa HEFLB antibody with ECD of ICOSL on the light chain (antibody, human IgG4 S228P, kappa)
heavy: not shown
light: DVVMTQSPLSLPVTLGQPASISCRSSQSLVHSYGNTYLYWFQQRPGQSPRLLIYRVSNRFSGVPDRFSGSGSGTDFTLKISRVEAEDVGVYYCFQGTHVPYTFGGGTKVEIKRTVAAPSVFIFPPSDEQLKSGTASVVCLLNNFYPREAKVQWKVDNALQSGNSQESVTEQDSKDSTYSLSSTLTLSKADYEKHKVYACEVTHQGLSSPVTKSFNRGECGGGGSGGGGSGGGGSDTQEKEVRAMVGSDVELSCACPEGSRFDLNDVYVYWQTSESKTVVTYHIPQNSSLENVDSRYRNRALMSPAGMLRGDFSLRLFNVTPQDEQKFHCLVLSQSLGFQEVLSVEVTLHVAANFSVPVVSAPHSPSQDELTFTCTSINGYPRPNVYWINKTDNSLLDQALQNDTVFLNMRGLYDVVSVLRIARTPSVNIGCCIENVLLQQNLTVGSQTGNDIGERDKITENPVSTGEKNAAT
notes: as m32, ECD of ICOSL; also called VH+VLprot (ICOSL); HEF + LB-ICOSL
Regarding B6, in the assay with CD28Fc, the binding result is recorded as “binds”. Besides, the “EC50 (read off the curve)” value in assay [11] is around 0.006 µg/mL.
